Article PMC5201023, “An unconventional interaction between Dis1/TOG and Mal3/EB1 in fission yeast promotes the fidelity of chromosome segregation” (Journal of Cell Science, 2016)
Each block holds one binder with its values, some of them ahead of it.

B1: Mal3 (recombinant full-length, without fluorescent protein) (natural protein, Schizosaccharomyces pombe, UniProt Q10113 1-308, looked up)
chain: MSESRQELLAWINQVTSLGLTRIEDCGKGYAMIQIFDSIYQDIPLKKVNFECNNEYQYINNWKVLQQVFLKKGIDKVVDPERLSRCKMQDNLEFVQWAKRFWDQYYPGGDYDALARRGNRGPANTRVMNSSAGATGPSRRRQVSSGSSTPSMTKSSANNNNVSSTANTAAVLRAKQAQQQITSLETQLYEVNETMFGLERERDFYFNKLREIEILVQTHLTTSPMSMENMLERIQAILYSTEDGFELPPDQPADLTTALTDHDTNNVAEEAQMTDLKDSETQRVPSAPDFVHARLQSLEVDDDENITF
notes: Mal3, the sole EB1 homologue of fission yeast; also called unlabelled Mal3; source: bacterially expressed, purified (as in Maurer et al., 2011)
B2: Dis1–eGFP (full-length Dis1 with eGFP fused to its C-terminus) (natural protein, Schizosaccharomyces pombe, UniProt Q09933 1-882, looked up)
chain: MELDDFNSRILSQIFDKSWKVRFEAYESLLHALNRALDDSDVCFQPWIHDPALWKQGLCDSNVPTQEHAVKSLRCFLDKSRQKGVNSAKSFVVAPLLEKCLPSPRQSIRDASHQALLILAKSDALDYVLEGLFSAARVKHPKQAVASIKELNSLLENFGIPALSPIPFYKLIPTLFAQSDKNIRQEASNLSITLYAWVGNAFKTHVFPQLKQIQVSDLEASFQNVTSRTTTGGHISNSLNTQEVVLPSFSSNAKPKPHLSSKSSSQGNTLQRSTSSFSTPNRKVSQPSDFSASPSRSIVSPAKNIVGSTPVDVLSKLTPEFHTALSSPKWKDRKEALESMVPVCSNPVYQEGDYSELLRVIAKSLKDANVVVVGVAALLLTHIAKALRKGFLPYTGIVLPSLFDRFKERKSSLVHSLLDAANAIFESCGLNDIMDETLEFLKHKNPQVKTETLRWLNRCLQLTDVCPPRASLETLCSLCVTLINDTFEPVRMATTNVLATLVQIFSQPVLSKYIVGLDPKKLPKILELSKDITVNAHPNQPSRPRLPRVASPLKTSPVKLAVTPQAPSPLPSSNPSQASLTEESLSTRSSPTKPSTTSLRSQSLVNRFASSTLKAPSSSSKGVSNAASSKQSFPSSPSISKKLETSRLSTKKLPGSTMKAASALKEYPQQQSMKSGGEKQDNLVTITMSEKVELDLLREEKAIRQVQEAEDALERERLFREINDLQIQNAEMKEQVYEKESTISQKEVEITSLRNEKDRLSTRLQQVLLELEKQHETNEEAMDIDLKVPESGAIGRVTTRATATTAMDESGNAGMVSSGIHSVSTKPSSYGTRRSLAGSMLQKPTQFSRPSFMFSPEARDNWRESHDLSSHLWEQIQRMKKA
B3: GST–Mal3 (GST-tagged Mal3) (natural protein, Schizosaccharomyces pombe, UniProt Q10113 1-308, looked up)
chain: MSESRQELLAWINQVTSLGLTRIEDCGKGYAMIQIFDSIYQDIPLKKVNFECNNEYQYINNWKVLQQVFLKKGIDKVVDPERLSRCKMQDNLEFVQWAKRFWDQYYPGGDYDALARRGNRGPANTRVMNSSAGATGPSRRRQVSSGSSTPSMTKSSANNNNVSSTANTAAVLRAKQAQQQITSLETQLYEVNETMFGLERERDFYFNKLREIEILVQTHLTTSPMSMENMLERIQAILYSTEDGFELPPDQPADLTTALTDHDTNNVAEEAQMTDLKDSETQRVPSAPDFVHARLQSLEVDDDENITF
notes: Mal3, the sole EB1 homologue of fission yeast; also called Mal3 FL
B7: Dis1 C2–eGFP (amino acids 690–882) (domain or fragment, Schizosaccharomyces pombe, UniProt Q09933 690-882, looked up)
chain: EKVELDLLREEKAIRQVQEAEDALERERLFREINDLQIQNAEMKEQVYEKESTISQKEVEITSLRNEKDRLSTRLQQVLLELEKQHETNEEAMDIDLKVPESGAIGRVTTRATATTAMDESGNAGMVSSGIHSVSTKPSSYGTRRSLAGSMLQKPTQFSRPSFMFSPEARDNWRESHDLSSHLWEQIQRMKKA
notes: also called Dis1-C2–eGFP (WT); source: bacterially expressed, purified (as the other Dis1–eGFP constructs)

What was measured:
[1] = target: T1, Dis1–HA (full-length Dis1 with a hemagglutinin tag at its C-terminus) (Schizosaccharomyces pombe, UniProt Q09933 1-882); test: SEC; analytical gel filtration on Superose 6 10/300; 25 mM K-HEPES pH 7.5, 200 mM KCl, 1 mM EGTA, 1 mM MgCl2; 5 µM Dis1–eGFP with 10 µM tubulin, or 5 µM Dis1–HA with 20 µM Mal3; details: both partners purified
T1 construct: Dis1, fission yeast (S. pombe) member of the XMAP215/TOG family; cDNA optimised for E. coli codons; also called recombinant Dis1 with an HA tag; source: bacterially expressed, purified (IgG Sepharose, Precision protease); not shown: HA, C-terminal, kept
T1 sequence (looked up): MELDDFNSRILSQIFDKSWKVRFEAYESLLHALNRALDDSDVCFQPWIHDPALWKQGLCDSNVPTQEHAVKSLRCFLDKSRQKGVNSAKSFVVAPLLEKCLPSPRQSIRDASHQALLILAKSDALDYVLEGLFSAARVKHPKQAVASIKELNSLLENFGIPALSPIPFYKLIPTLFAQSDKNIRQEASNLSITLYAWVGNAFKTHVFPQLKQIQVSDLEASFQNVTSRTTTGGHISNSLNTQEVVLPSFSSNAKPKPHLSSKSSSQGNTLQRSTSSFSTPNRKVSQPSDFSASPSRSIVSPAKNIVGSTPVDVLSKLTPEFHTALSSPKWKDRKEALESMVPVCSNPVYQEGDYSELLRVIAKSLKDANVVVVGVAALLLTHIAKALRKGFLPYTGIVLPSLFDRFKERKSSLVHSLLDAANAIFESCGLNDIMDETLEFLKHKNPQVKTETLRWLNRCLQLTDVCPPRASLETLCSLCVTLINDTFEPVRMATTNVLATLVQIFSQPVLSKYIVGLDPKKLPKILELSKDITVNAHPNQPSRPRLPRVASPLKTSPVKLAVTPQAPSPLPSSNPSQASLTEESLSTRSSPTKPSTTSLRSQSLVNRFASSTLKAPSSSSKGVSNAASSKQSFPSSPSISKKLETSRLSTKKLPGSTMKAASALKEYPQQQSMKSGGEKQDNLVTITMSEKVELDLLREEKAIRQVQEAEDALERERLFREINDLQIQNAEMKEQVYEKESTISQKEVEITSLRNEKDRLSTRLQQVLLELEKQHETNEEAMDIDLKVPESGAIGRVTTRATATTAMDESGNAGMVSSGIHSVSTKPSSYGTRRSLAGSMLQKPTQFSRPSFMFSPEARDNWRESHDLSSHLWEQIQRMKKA

[2] = target: B2; test: TIRF microscopy on dynamic microtubules in vitro; Cy5-labelled MTs grown from immobilised GMPCPP-stabilised seeds; BRB80 with 85 mM KCl, 1 mM GTP, 10 mM β-mercaptoethanol, 0.1% Brij-35, 0.1% methylcellulose; 30±1°C; 10-20 nM Dis1–eGFP proteins with or without 20 nM-1 µM Mal3; details: both partners purified
[3] = target: B1; test: cell-based or functional assay
[4] = target: B2; test: pull-down; GST pulldown: 1 µM GST, GST–Mal3 or truncated GST–Mal3 on glutathione–Sepharose beads with 0.5 µM Dis1–eGFP proteins; BRB80 with 85 mM KCl, 0.01% Brij-35, 1 mM DTT; 1 h at 4°C; details: both partners purified
[5] = target: B7; test: pull-down; Mal3 (amino acids 174–247) mixed with wild-type or LAPA Dis1-C2–eGFP and pulled down by GFP trap beads; details: both partners purified
[6] = target: T2, Dis1 C1–eGFP (amino acids 520–882) (Schizosaccharomyces pombe, UniProt Q09933 520-882); test: pull-down; GST pulldown: 1 µM GST, GST–Mal3 or truncated GST–Mal3 on glutathione–Sepharose beads with 0.5 µM Dis1–eGFP proteins; BRB80 with 85 mM KCl, 0.01% Brij-35, 1 mM DTT; 1 h at 4°C; details: both partners purified
T2 construct: source: bacterially expressed, purified (as the other Dis1–eGFP constructs)
T2 sequence (looked up): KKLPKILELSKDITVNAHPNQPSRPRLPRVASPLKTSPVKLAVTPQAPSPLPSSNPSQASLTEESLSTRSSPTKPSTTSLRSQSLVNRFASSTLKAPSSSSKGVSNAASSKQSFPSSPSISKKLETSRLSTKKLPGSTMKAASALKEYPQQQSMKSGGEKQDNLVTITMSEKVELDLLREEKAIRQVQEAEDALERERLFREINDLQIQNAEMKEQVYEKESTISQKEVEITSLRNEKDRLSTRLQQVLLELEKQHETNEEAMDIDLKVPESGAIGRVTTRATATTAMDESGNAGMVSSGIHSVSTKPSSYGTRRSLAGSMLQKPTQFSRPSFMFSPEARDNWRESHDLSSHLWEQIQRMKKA

[7] = target: B3; test: pull-down; peptide competition: 1 µM GST–Mal3 on glutathione beads pre-incubated 30 min with Dis1 peptide (0, 0.5, 2.5, 5.0, 50, 100 µM), then 0.5 µM Dis1 C2–eGFP for 1 h; details: both partners purified
[8] = target: B1; test: TIRF microscopy on dynamic microtubules in vitro; Cy5-labelled MTs grown from immobilised GMPCPP-stabilised seeds; BRB80 with 85 mM KCl, 1 mM GTP, 10 mM β-mercaptoethanol, 0.1% Brij-35, 0.1% methylcellulose; 30±1°C; 10-20 nM Dis1–eGFP proteins with or without 20 nM-1 µM Mal3; details: both partners purified

Binder: B1
binding result [1]: binds | binding result [2]: binds

Binder: B2
MT catastrophe frequency with Mal3 and Dis1 together, fold over tubulin alone (Mal3 alone ∼1.9-fold, Dis1 alone no effect) [3]: ~3.8 fold

Binder: B3
binding result [4]: binds

binding result [5]: binds
B4: Mal3 C4 (amino acids 174–247; C-terminal part of the coiled-coil and the EBH domain) (domain or fragment, Schizosaccharomyces pombe, UniProt Q10113 174-247, looked up)
chain: AKQAQQQITSLETQLYEVNETMFGLERERDFYFNKLREIEILVQTHLTTSPMSMENMLERIQAILYSTEDGFEL
notes: Homodimer in both crystal structures; also called Mal3 EBH domain; source: purified (His-tag resin, TEV protease, gel filtration)

binding result [6]: binds
B5: GST–Mal3 C1 (amino acids 144–308) (domain or fragment, Schizosaccharomyces pombe, UniProt Q10113 144-308, looked up)
chain: SSGSSTPSMTKSSANNNNVSSTANTAAVLRAKQAQQQITSLETQLYEVNETMFGLERERDFYFNKLREIEILVQTHLTTSPMSMENMLERIQAILYSTEDGFELPPDQPADLTTALTDHDTNNVAEEAQMTDLKDSETQRVPSAPDFVHARLQSLEVDDDENITF
notes: also called C-terminal half

binding result [7]: binds
B6: Dis1 peptide (amino acids 833–852) (peptide, UniProt Q09933 833-852, looked up)
peptide: RRSLAGSMLQKPTQFSRPSF
notes: source: spotted on the peptide array membrane

Binder: B7
binding result [7]: binds | binding result [8]: binds
